According to IntAct's records for PubMed 22327218:

Target: anm5_human PRMT5 (UniProt O14744)
Sequence (O14744 whole entry): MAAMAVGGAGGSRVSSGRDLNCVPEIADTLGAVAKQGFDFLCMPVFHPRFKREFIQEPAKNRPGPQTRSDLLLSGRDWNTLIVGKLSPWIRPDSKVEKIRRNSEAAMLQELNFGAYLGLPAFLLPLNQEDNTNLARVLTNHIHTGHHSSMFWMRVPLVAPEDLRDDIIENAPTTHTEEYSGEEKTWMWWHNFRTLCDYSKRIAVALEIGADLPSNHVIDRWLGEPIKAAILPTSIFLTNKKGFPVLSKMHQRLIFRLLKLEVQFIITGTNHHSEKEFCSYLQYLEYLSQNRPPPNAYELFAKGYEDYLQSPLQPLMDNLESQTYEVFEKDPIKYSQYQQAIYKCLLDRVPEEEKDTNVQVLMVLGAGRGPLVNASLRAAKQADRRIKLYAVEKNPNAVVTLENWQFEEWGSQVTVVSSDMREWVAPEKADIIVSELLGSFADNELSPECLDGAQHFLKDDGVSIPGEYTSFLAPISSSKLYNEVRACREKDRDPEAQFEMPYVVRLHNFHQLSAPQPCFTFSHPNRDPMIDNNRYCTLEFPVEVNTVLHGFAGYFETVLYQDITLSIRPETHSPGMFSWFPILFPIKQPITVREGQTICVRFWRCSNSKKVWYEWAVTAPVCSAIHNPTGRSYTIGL

Transcription factor E2F1 (Homo sapiens), Q01094 R111K, sequence (Q01094 whole entry R111K): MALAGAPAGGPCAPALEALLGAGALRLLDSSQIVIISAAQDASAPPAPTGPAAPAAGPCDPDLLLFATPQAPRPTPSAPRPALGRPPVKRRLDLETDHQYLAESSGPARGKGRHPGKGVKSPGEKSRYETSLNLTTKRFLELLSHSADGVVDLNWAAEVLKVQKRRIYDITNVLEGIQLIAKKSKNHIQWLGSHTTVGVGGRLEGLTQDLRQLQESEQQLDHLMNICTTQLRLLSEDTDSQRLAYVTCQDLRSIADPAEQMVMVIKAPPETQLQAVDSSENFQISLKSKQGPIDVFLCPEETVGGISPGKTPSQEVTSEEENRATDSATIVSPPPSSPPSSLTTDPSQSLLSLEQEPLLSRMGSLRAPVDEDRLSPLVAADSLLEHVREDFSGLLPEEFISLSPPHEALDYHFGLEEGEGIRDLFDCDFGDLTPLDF
Transcription factor E2F1 (Homo sapiens), Q01094 R109K, sequence (Q01094 whole entry R109K): as the sequence (Q01094 whole entry R111K) above, with R109K, K111R counted along it
Transcription factor E2F1 (Homo sapiens), Q01094 R113K, sequence (Q01094 whole entry R113K): as the sequence (Q01094 whole entry R111K) above, with K111R, R113K counted along it

| Substance | effect of a mutation on the interaction |
| --- | --- |
| Transcription factor E2F1 (Homo sapiens), Q01094 R111K | disrupting interaction |
| Transcription factor E2F1 (Homo sapiens), Q01094 R109K | disrupting interaction |
| Transcription factor E2F1 (Homo sapiens), Q01094 R113K | disrupting interaction |
